We go through 94 variants from the supplement of paper PMC10567573.

First the molecules themselves.
B1: DLC1 (parent)
chain: NDDSADYQHFLQDCVDGLFKEVKE
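Note: lentivirally expressed fusions sorted by FACS into six bins by GFP to DsRed ratio, PSI derived from sequencing read proportions per bin multiplied by bin number.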

In this series the parent is B1. Kind of series: protein stability index of a GFP-peptide fusion (GPS, HEK-293T) (PSI 1-6); higher = more stable. As to conditions: c terminus: a fixed tail appended.
As for NDDSAYYQHFLQDCVDGLFKEVKE, the protein stability index worked out at 2.94.

On to NDDSADYQHFLQDNVDGLFKEVKE, for which the protein stability index came to 5.34.

Turning to NDDSADYQHFLQDWVDGLFKEVKE, the protein stability index was 4.31.

In the case of NDDSADYQHFLQDHVDGLFKEVKE, the protein stability index stood at 5.11.

With NDDSADYQHFLQDAVDGLFKEVKE, the protein stability index came out at 2.33.

NDDSADYQHFLQDGVDGLFKEVKE: the protein stability index is 4.86.

On to NDDSADYQHFLQDTVDGLFKEVKE, for which the protein stability index stood at 4.12.

Regarding NDDSADYQHFLQDVVDGLFKEVKE, the protein stability index was 3.21.

With NDDSADYQHFLQDQVDGLFKEVKE, the protein stability index is 4.71.

As to NDDSADYQHFLQDEVDGLFKEVKE, the protein stability index came to 5.38.

Regarding NDDSADYQHFLQDIVDGLFKEVKE, the protein stability index was 2.41.

Turning to NDDSADYQHFLQDRVDGLFKEVKE, the protein stability index is 4.87.

Take NDDSADYQHFLQDMVDGLFKEVKE: the protein stability index is 3.63.

In the case of NDDSADYQHFLQDKVDGLFKEVKE, the protein stability index turned out to be 4.78.

As to NDDSADYQHFLQDFVDGLFKEVKE, the protein stability index came to 2.49.

For NDDSADYQHFLQDPVDGLFKEVKE, the protein stability index is 5.07.

With NDDSADYQHFLQDYVDGLFKEVKE, the protein stability index came out at 2.54.

Take NDDSADYQHFLQDSVDGLFKEVKE: the protein stability index was determined as 4.91.

Turning to NDDSADYQHFLQDDVDGLFKEVKE, the protein stability index worked out at 5.03.

With NDDSADYQHFLQDLVDGLFKEVKE, the protein stability index was determined as 1.97.

Regarding NDDSADYQHFLQACVDGLFKEVKE, the protein stability index worked out at 1.79.

Consider NDDSADYQHFLQICVDGLFKEVKE, for which the protein stability index was found to be 1.84.

As to NDDSADYQHFLQMCVDGLFKEVKE, the protein stability index was 2.34.

Consider NDDSADYQHFLQYCVDGLFKEVKE, for which the protein stability index came out at 2.14.

For the variant NDDSADYQHFLQSCVDGLFKEVKE, the protein stability index was 2.2.

Consider NDDSADYQHFLQKCVDGLFKEVKE, for which the protein stability index turned out to be 2.05.

Turning to NDDSADYQHFLQRCVDGLFKEVKE, the protein stability index was 2.02.

Turning to NDDSADYQHFLQVCVDGLFKEVKE, the protein stability index amounted to 1.56.

Regarding NDDSADYQHFLQECVDGLFKEVKE, the protein stability index was 2.66.

For NDDSADYQHFLQQCVDGLFKEVKE, the protein stability index came to 2.24.

On to NDDSADYQHFLQFCVDGLFKEVKE, for which the protein stability index was 1.86.

Take NDDSADYQHFLQCCVDGLFKEVKE: the protein stability index turned out to be 2.09.

Turning to NDDSADYQHFLQGCVDGLFKEVKE, the protein stability index was 2.42.

In the case of NDDSADYQHFLQLCVDGLFKEVKE, the protein stability index is 1.76.

In the case of NDDSADYQHFLQTCVDGLFKEVKE, the protein stability index stood at 2.16.

As for NDDSADYQHFLQHCVDGLFKEVKE, the protein stability index stood at 1.51.

Consider NDDSADYQHFLQNCVDGLFKEVKE, for which the protein stability index was determined as 2.38.

As for NDDSADYQHFLQPCVDGLFKEVKE, the protein stability index is 2.27.

Take NDDSADYQHFLQDCVIGLFKEVKE: the protein stability index was found to be 1.49.

Regarding NDDSADYQHFLQDCVMGLFKEVKE, the protein stability index was determined as 2.81.

As to NDDSADYQHFLQDCVVGLFKEVKE, the protein stability index was 2.99.

Regarding NDDSADYQHFLQDCVYGLFKEVKE, the protein stability index is 2.21.

Consider NDDSADYQHFLQDCVAGLFKEVKE, for which the protein stability index was determined as 2.08.

Take NDDSADYQHFLQDCVHGLFKEVKE: the protein stability index was determined as 3.44.

Take NDDSADYQHFLQDCVTGLFKEVKE: the protein stability index is 3.28.

As for NDDSADYQHFLQDCVNGLFKEVKE, the protein stability index is 2.81.

For NDDSADYQHFLQDCVKGLFKEVKE, the protein stability index is 2.56.

As to NDDSADYQHFLQDCVSGLFKEVKE, the protein stability index came out at 3.22.

With NDDSADYQHFLQDCVWGLFKEVKE, the protein stability index was 1.8.

Consider NDDSADYQHFLQDCVCGLFKEVKE, for which the protein stability index came to 2.29.

For the variant NDDSADYQHFLQDCVEGLFKEVKE, the protein stability index amounted to 2.08.

Turning to NDDSADYQHFLQDCVFGLFKEVKE, the protein stability index was 2.34.

For the variant NDDSADYQHFLQDCVQGLFKEVKE, the protein stability index turned out to be 2.31.

Regarding NDDSADYQHFLQDCVRGLFKEVKE, the protein stability index was found to be 4.08.

For NDDSADYQHFLQDCVLGLFKEVKE, the protein stability index is 2.12.

For NDDSADYQHFLQDCVPGLFKEVKE, the protein stability index worked out at 4.34.

As for NDDSADYQHRLQDCVDGLFKEVKE, the protein stability index was 3.96.

As to NDDSADYQHGLQDCVDGLFKEVKE, the protein stability index is 4.53.

With NDDSADYQHMLQDCVDGLFKEVKE, the protein stability index is 2.34.

Turning to NDDSADYQHTLQDCVDGLFKEVKE, the protein stability index worked out at 2.47.

For the variant NDDSADYQHVLQDCVDGLFKEVKE, the protein stability index worked out at 1.42.

As to NDDSADYQHHLQDCVDGLFKEVKE, the protein stability index is 4.34.

As for NDDSADYQHDLQDCVDGLFKEVKE, the protein stability index came to 5.1.

With NDDSADYQHALQDCVDGLFKEVKE, the protein stability index was 2.08.

With NDDSADYQHCLQDCVDGLFKEVKE, the protein stability index stood at 2.66.

For NDDSADYQHKLQDCVDGLFKEVKE, the protein stability index was 3.6.

With NDDSADYQHWLQDCVDGLFKEVKE, the protein stability index worked out at 1.98.

Regarding NDDSADYQHELQDCVDGLFKEVKE, the protein stability index came to 3.75.

As for NDDSADYQHNLQDCVDGLFKEVKE, the protein stability index came out at 4.56.

With NDDSADYQHSLQDCVDGLFKEVKE, the protein stability index was 3.92.

Turning to NDDSADYQHILQDCVDGLFKEVKE, the protein stability index came out at 1.78.

Regarding NDDSADYQHYLQDCVDGLFKEVKE, the protein stability index worked out at 2.75.

In the case of NDDSADYQHPLQDCVDGLFKEVKE, the protein stability index was 4.36.

As to NDDSADYQHLLQDCVDGLFKEVKE, the protein stability index came out at 1.62.

Take NDDSADYQHQLQDCVDGLFKEVKE: the protein stability index is 3.16.

NDDSADYQHFEQDCVDGLFKEVKE: the protein stability index was found to be 5.25.

For NDDSADYQHFAQDCVDGLFKEVKE, the protein stability index came to 5.62.

On to NDDSADYQHFHQDCVDGLFKEVKE, for which the protein stability index worked out at 5.08.

Turning to NDDSADYQHFSQDCVDGLFKEVKE, the protein stability index turned out to be 5.1.

For NDDSADYQHFNQDCVDGLFKEVKE, the protein stability index was determined as 4.76.

In the case of NDDSADYQHFTQDCVDGLFKEVKE, the protein stability index was 4.94.

Consider NDDSADYQHFRQDCVDGLFKEVKE, for which the protein stability index worked out at 5.35.

Turning to NDDSADYQHFIQDCVDGLFKEVKE, the protein stability index worked out at 3.54.

As for NDDSADYQHFWQDCVDGLFKEVKE, the protein stability index was found to be 3.78.

For the variant NDDSADYQHFKQDCVDGLFKEVKE, the protein stability index came to 5.08.

With NDDSADYQHFCQDCVDGLFKEVKE, the protein stability index came to 3.07.

Consider NDDSADYQHFDQDCVDGLFKEVKE, for which the protein stability index is 5.47.

In the case of NDDSADYQHFMQDCVDGLFKEVKE, the protein stability index is 3.29.

NDDSADYQHFGQDCVDGLFKEVKE: the protein stability index is 5.35.

Turning to NDDSADYQHFYQDCVDGLFKEVKE, the protein stability index was determined as 4.47.

In the case of NDDSADYQHFPQDCVDGLFKEVKE, the protein stability index is 4.51.

With NDDSADYQHFQQDCVDGLFKEVKE, the protein stability index is 5.4.

For the variant NDDSADYQHFVQDCVDGLFKEVKE, the protein stability index amounted to 4.18.

Consider NDDSADYQEFLQDCVDGLFKEVKE, for which the protein stability index was found to be 3.47.
